Measured values taken from US20240254227A1 (Alector, published 2024).
Each block holds one binder with its values, some of them ahead of it.

Molecular target: T1, human CD300A-Fc (human)
T1 construct: hIgG1-Fc fusion; the entry is the whole fusion chain
T1 chain: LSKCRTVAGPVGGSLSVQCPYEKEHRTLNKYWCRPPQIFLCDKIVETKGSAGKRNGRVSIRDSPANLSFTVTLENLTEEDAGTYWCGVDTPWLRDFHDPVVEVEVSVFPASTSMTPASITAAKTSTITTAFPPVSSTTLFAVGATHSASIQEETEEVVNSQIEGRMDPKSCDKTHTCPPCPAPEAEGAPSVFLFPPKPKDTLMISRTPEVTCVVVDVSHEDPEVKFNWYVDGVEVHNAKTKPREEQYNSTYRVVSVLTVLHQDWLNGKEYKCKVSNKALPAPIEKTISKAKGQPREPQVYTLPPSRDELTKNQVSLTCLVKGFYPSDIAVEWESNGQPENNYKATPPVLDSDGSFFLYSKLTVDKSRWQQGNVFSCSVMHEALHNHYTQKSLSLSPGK
Assay: SPR (Carterra LSA), antibody immobilised
Summary of the method: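 Mouse anti-CD300LB IgG1 antibodies were amine-coupled in a 96-spot array on an HC200M chip; Fc-fused CD300 ectodomains (human on hIgG1-Fc) flowed over as analytes at 300 nM or 600 nM in HBS-TE with 0.5 mg/ml BSA, injected in series without regeneration, with kinetics fitted by high-throughput analysis.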

binding result: no binding (tested: 300 nM or 600 nM)
B1: anti-CD300LB antibody CD-02 (antibody, V domains shown)
VH: QVQLQQPGAELVRPGSSVKLSCQASGYTFTNYWMHWVRQRPIQGLEWIGNIDPSDSETHYNQKFKDRATLTVDKSSSTAYMQLSSLTSEDSAVYYCARSGVYDDEGGDYWGQGTTLTVSS
VL: ENVLTQSPAIMSASPGEKVTMTCSASSSVSYIHWYQQKSSTSPKLWIYDTSKLASGVPGRFSGSGSGNSYSLTISSMETEDVATYYCFQGSGYPLTFGAGTKLELK

binding result: no binding (tested: 300 nM or 600 nM)
B2: anti-CD300LB antibody CD-03 (antibody, V domains shown)
VH: EVQLQQSGPELVKPGASVKISCKASGYTFTDYYINWVRQSHGKSLECIGDINPNNGGTNYNQKFKGKATLTVDRSSNTAYMEFRSLTFDDSALYYCAAEGAYWGQGTLVTVSA
VL: not shown
